Experimental data as given in paper doi:10.1101/2024.12.01.626218.

Target: TTF2 1-100 (UniProt Q5NC05)
Assay: isothermal titration calorimetry
Details: reference: unphosphorylated TRAIP 313-329 peptide; sites T325

binding against the reference: gained
Substance: TRAIP 313-329 (from UniProt Q8VIG6) pT325 TRAIP 313-329 peptide
